Results as given in patent US20250027945A1.

What was measured:
[1] = target: human RYK on the surface of human tumor cell lines (human) (UniProt P34925); assay: flow cytometry, REH cells (ALL), isotype matched control mAb, equal amount
[2] = target: human RYK on the surface of human tumor cell lines (human) (UniProt P34925); assay: flow cytometry, EW36 cells (NHL), isotype matched control mAb, equal amount
[3] = target: human RYK on the surface of human tumor cell lines (human) (UniProt P34925); assay: flow cytometry, K562 cells (CML), isotype matched control mAb, equal amount
[4] = target: human RYK on the surface of human tumor cell lines (human) (UniProt P34925); assay: flow cytometry, MEC1 cells (CLL), isotype matched control mAb, equal amount
[5] = target: human RYK on the surface of human tumor cell lines (human) (UniProt P34925); assay: flow cytometry, A549 cells (lung), isotype matched control mAb, equal amount
[6] = target: human RYK on the surface of human tumor cell lines (human) (UniProt P34925); assay: flow cytometry, H292 cells (lung), isotype matched control mAb, equal amount
[7] = target: human RYK on the surface of human tumor cell lines (human) (UniProt P34925); assay: flow cytometry, H446 cells (lung), isotype matched control mAb, equal amount
[8] = target: human RYK on the surface of human tumor cell lines (human) (UniProt P34925); assay: flow cytometry, H460 cells (lung), isotype matched control mAb, equal amount
[9] = target: human RYK on the surface of human tumor cell lines (human) (UniProt P34925); assay: flow cytometry, NALM6 cells (ALL), isotype matched control mAb, equal amount
[10] = target: human RYK on the surface of human tumor cell lines (human) (UniProt P34925); assay: flow cytometry, HT144 cells (skin), isotype matched control mAb, equal amount
[11] = target: human RYK on the surface of human tumor cell lines (human) (UniProt P34925); assay: flow cytometry, HT29 cells (colon), isotype matched control mAb, equal amount
[12] = target: human RYK on the surface of human tumor cell lines (human) (UniProt P34925); assay: flow cytometry, HS683 cells (brain), isotype matched control mAb, equal amount
[13] = target: human RYK on the surface of human tumor cell lines (human) (UniProt P34925); assay: flow cytometry, JEKO cells (mantle), isotype matched control mAb, equal amount
[14] = target: human RYK on the surface of human tumor cell lines (human) (UniProt P34925); assay: flow cytometry, MCF7 cells (breast), isotype matched control mAb, equal amount
[15] = target: human RYK on the surface of human tumor cell lines (human) (UniProt P34925); assay: flow cytometry, MINO cells (mantle), isotype matched control mAb, equal amount
[16] = target: human RYK on the surface of human tumor cell lines (human) (UniProt P34925); assay: flow cytometry, SW620 cells (colon), isotype matched control mAb, equal amount
[17] = target: human RYK on the surface of human tumor cell lines (human) (UniProt P34925); assay: flow cytometry, SW948 cells (colon), isotype matched control mAb, equal amount
[18] = target: human RYK on the surface of human tumor cell lines (human) (UniProt P34925); assay: flow cytometry, T24 cells (bladder), isotype matched control mAb, equal amount
[19] = target: human RYK on the surface of human tumor cell lines (human) (UniProt P34925); assay: flow cytometry, BT549 cells (breast), isotype matched control mAb, equal amount
[20] = target: human RYK on the surface of human tumor cell lines (human) (UniProt P34925); assay: flow cytometry, PC3 cells (prostate), isotype matched control mAb, equal amount
[21] = target: human RYK on the surface of human tumor cell lines (human) (UniProt P34925); assay: flow cytometry, SKBR3 cells (breast), isotype matched control mAb, equal amount
[22] = target: human RYK on the surface of human tumor cell lines (human) (UniProt P34925); assay: flow cytometry, T47-D cells (breast), isotype matched control mAb, equal amount
[23] = target: human RYK on the surface of human tumor cell lines (human) (UniProt P34925); assay: flow cytometry, NCI H226 cells (lung), isotype matched control mAb, equal amount
[24] = target: human RYK on the surface of human tumor cell lines (human) (UniProt P34925); assay: flow cytometry, SH-SY5Y cells (brain), isotype matched control mAb, equal amount
[25] = target: human RYK on the surface of human tumor cell lines (human) (UniProt P34925); assay: flow cytometry, SK-MEL-2 cells (skin), isotype matched control mAb, equal amount
[26] = target: human RYK on the surface of human tumor cell lines (human) (UniProt P34925); assay: flow cytometry, SK-MES-1 cells (lung), isotype matched control mAb, equal amount
[27] = target: human RYK on the surface of human tumor cell lines (human) (UniProt P34925); assay: flow cytometry, HS-578T cells (breast), isotype matched control mAb, equal amount
[28] = target: human RYK on the surface of human tumor cell lines (human) (UniProt P34925); assay: flow cytometry, NCI H1155 cells (lung), isotype matched control mAb, equal amount
[29] = target: human RYK on the surface of human tumor cell lines (human) (UniProt P34925); assay: flow cytometry, OVCAR4 cells (ovarian), isotype matched control mAb, equal amount
[30] = target: human RYK on the surface of human tumor cell lines (human) (UniProt P34925); assay: flow cytometry, DU-145 cells (prostate), isotype matched control mAb, equal amount
[31] = target: human RYK on the surface of human tumor cell lines (human) (UniProt P34925); assay: flow cytometry, SK-OV-3 cells (ovarian), isotype matched control mAb, equal amount
[32] = target: human RYK on the surface of human tumor cell lines (human) (UniProt P34925); assay: flow cytometry, CAPAN-1 cells (pancreas), isotype matched control mAb, equal amount
[33] = target: human RYK on the surface of human tumor cell lines (human) (UniProt P34925); assay: flow cytometry, CAPAN-2 cells (pancreas), isotype matched control mAb, equal amount
[34] = target: human RYK on the surface of human tumor cell lines (human) (UniProt P34925); assay: flow cytometry, MOLT4 cells (T-cell ALL), isotype matched control mAb, equal amount
[35] = target: human RYK on the surface of human tumor cell lines (human) (UniProt P34925); assay: flow cytometry, RAJI cells (Burkitt NHL), isotype matched control mAb, equal amount
[36] = target: human RYK on the surface of human tumor cell lines (human) (UniProt P34925); assay: flow cytometry, COLO 829 cells (melanoma), isotype matched control mAb, equal amount
[37] = target: human RYK on the surface of human tumor cell lines (human) (UniProt P34925); assay: flow cytometry, JURKAT cells (T-cell ALL), isotype matched control mAb, equal amount
[38] = target: human RYK on the surface of human tumor cell lines (human) (UniProt P34925); assay: flow cytometry, MDA-MB-231 cells (breast), isotype matched control mAb, equal amount
[39] = target: human RYK on the surface of human tumor cell lines (human) (UniProt P34925); assay: flow cytometry, RAMOS cells (Burkitt NHL), isotype matched control mAb, equal amount
[40] = target: human RYK on the surface of human tumor cell lines (human) (UniProt P34925); assay: flow cytometry, A673 cells (Ewings sarcoma), isotype matched control mAb, equal amount
[41] = target: human RYK on the surface of human tumor cell lines (human) (UniProt P34925); assay: flow cytometry, U937 cells (monocyte cancer), isotype matched control mAb, equal amount
[42] = target: human RYK on the surface of human tumor cell lines (human) (UniProt P34925); assay: flow cytometry, HELA cells (ovarian as printed), isotype matched control mAb, equal amount
[43] = target: human RYK on the surface of human tumor cell lines (human) (UniProt P34925); assay: flow cytometry, NCI H929 cells (melanoma as printed), isotype matched control mAb, equal amount
[44] = target: human RYK on the surface of human tumor cell lines (human) (UniProt P34925); assay: flow cytometry of dissociated primary triple-negative breast cancer PDX cells M0026 (T1), fluorochrome-conjugated isotype control mAb; count 15903

Sequence of human RYK on the surface of human tumor cell lines (human) (P34925 46-607 limits assumed, form in doubt): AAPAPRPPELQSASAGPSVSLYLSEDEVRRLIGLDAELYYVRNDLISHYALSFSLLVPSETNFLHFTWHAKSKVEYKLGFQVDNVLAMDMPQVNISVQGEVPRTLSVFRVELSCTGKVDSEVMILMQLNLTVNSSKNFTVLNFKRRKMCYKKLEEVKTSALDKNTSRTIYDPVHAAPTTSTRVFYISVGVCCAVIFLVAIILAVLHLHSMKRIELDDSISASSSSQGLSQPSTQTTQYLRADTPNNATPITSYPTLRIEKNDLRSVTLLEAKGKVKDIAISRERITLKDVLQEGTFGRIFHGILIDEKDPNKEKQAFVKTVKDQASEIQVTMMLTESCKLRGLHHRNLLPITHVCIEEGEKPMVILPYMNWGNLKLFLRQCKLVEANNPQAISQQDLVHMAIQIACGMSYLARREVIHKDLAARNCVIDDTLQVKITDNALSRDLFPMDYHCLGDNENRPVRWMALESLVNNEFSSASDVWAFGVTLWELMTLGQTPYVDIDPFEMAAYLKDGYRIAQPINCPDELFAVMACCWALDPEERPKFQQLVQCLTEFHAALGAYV

MFI [1]: 7.4 | MFI [2]: 5.6 | MFI [3]: 2.8 | MFI [4]: 4.3 | MFI [5]: 4.8 | MFI [6]: 107 | MFI [7]: 23.3 | MFI [8]: 58 | MFI [9]: 5.7 | MFI [10]: 126 | MFI [11]: 100 | MFI [12]: 229 | MFI [13]: 3.9 | MFI [14]: 5.2 | MFI [15]: 7.6 | MFI [16]: 5.6 | MFI [17]: 30.7 | MFI [18]: 72.6 | MFI [19]: 197 | MFI [20]: 2.8 | MFI [21]: 73.9 | MFI [22]: 25.7 | MFI [23]: 6 | MFI [24]: 4.1 | MFI [25]: 7 | MFI [26]: 156 | MFI [27]: 7.3 | MFI [28]: 6.2 | MFI [29]: 61 | MFI [30]: 3.2 | MFI [31]: 5.6 | MFI [32]: 86.9 | MFI [33]: 4.7 | MFI [34]: 5.1 | MFI [35]: 6.4 | MFI [36]: 6.9 | MFI [37]: 5.7 | MFI [38]: 8.3 | MFI [39]: 6.1 | MFI [40]: 52 | MFI [41]: 6.7 | MFI [42]: 6.1 | MFI [43]: 43.8 | Median : Comp-Alexa Fluor 647-A [44]: 39.9
Substance: isotype matched control mAb (antibody)
